Reference: US20240124607A1 (Merck Sharp & Dohme, published 2024)
Numbering of substitutions follows the chain as printed. Each block holds one binder with its values, some of them ahead of it.

Key:
[1] = target: T1, hCEACAM5 A2-B2 domain (human, UniProt P06731 323-500, limits assumed); assay: SPR with hCEACAM5 domains
T1 sequence: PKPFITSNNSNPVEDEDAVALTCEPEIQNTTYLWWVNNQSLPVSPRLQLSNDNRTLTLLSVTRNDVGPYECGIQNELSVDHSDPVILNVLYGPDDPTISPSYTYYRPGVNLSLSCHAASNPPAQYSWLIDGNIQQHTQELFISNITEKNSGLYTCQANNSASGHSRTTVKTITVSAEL
Description: (§1) If the protein domain was an Fc fusion, AB0411, AB0466, AB0264, or AB0621 were captured using an anti-human Fab antibody (Cytiva, #28958325) immobilized onto a CM5 chip. The various hCEACAM5 protein domains (N-term, A1-B1, A2, B2, A3, or B3) were titrated over the captured TriNKETs at 50 μL/min for 180 sec of association and 300 sec of dissociation. The assay was run at 25° C. in HBS-EP+ running buffer, pH 7.4. The surface of the CM5 chip was regenerated using […] glycine pH 2.1.
(§2) The various hCEACAM5 protein domains were titrated over the captured antibody at 50 μL/min for 180 sec of association and 300 sec of dissociation. The assay was run at 37° C. in HBS-EP+ running buffer, pH 7.4. The surface of the CM5 chip was regenerated using 3M MgCl₂.

[2] = target: T2, hCEACAM5 A3-B3 domain (human, UniProt P06731 501-685, limits assumed); assay: SPR with hCEACAM5 domains
T2 sequence: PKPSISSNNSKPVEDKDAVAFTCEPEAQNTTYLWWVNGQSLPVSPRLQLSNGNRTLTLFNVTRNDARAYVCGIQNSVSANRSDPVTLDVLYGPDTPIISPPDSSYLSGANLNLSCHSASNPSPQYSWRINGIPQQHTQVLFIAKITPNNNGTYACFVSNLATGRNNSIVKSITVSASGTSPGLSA
Description: as §1, §2

[3] = target: T3, human CEACAM5 on cells (human, UniProt P06731 35-685); assay: cell-based or functional assay
T3 sequence: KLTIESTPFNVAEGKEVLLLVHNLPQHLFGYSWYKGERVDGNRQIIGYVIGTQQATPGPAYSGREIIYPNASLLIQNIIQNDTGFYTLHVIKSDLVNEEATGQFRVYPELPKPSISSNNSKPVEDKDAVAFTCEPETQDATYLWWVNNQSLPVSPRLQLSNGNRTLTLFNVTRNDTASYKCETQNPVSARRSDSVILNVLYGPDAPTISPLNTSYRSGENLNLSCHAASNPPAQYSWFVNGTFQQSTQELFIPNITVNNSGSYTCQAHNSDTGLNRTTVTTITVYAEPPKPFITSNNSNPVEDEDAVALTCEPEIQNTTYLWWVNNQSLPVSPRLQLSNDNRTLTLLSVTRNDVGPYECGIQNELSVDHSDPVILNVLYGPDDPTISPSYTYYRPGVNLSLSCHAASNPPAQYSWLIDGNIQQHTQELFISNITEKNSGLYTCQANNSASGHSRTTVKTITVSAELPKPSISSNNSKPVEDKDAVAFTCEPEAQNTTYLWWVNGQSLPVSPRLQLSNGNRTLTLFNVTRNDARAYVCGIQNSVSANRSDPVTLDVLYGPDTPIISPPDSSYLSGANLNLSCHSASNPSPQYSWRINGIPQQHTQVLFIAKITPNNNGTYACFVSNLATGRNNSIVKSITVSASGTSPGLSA

[4] = target: T3, human CEACAM5 on cells; assay: flow cytometry, MKN-45 cells
Description: MKN-45 and HPAF-II human cancer cell lines were diluted into FACS buffer and 100,000 cells of each cell type were seeded per well in duplicate into 96-well plates for FACS staining. The cells were washed with PBS, incubated in a 1:2000 dilution of live/dead dye in PBS for 15 minutes, and then washed with FACS buffer. AB0264, AB0411, AB0466, and AB0621 were diluted into FACS buffer, and 50 μl of each diluted TriNKET was added to the cells. After incubation on ice for 30-120 minutes, the cells were washed with FACS buffer. Anti-human IgG-Fc secondary antibody was diluted into FACS buffer, and 50 μl was added per well for detection of the bound TriNKETs. The cells were incubated for 30-60 minutes on ice and then washed with FACS buffer. 50 μl of fixation buffer was added to each well and the cells were incubated for 10 minutes at room temperature. The cells were washed with FACS buffer and resuspended in FACS buffer for analysis with ThermoFisher Attune NxT, BD FACS Celesta SN #H66034400085, or BD FACS Celesta SN #H66034400160.

[5] = target: T4, soluble mouse Fc-human NKG2D dimer (human, UniProt P26718 78-216, limits assumed); assay: SPR, NKG2D-mFc captured, 37C, pH 7.4
T4 construct: also called NKG2D-mFc; human NKG2D fused to a mouse Fc
T4 sequence (looked up): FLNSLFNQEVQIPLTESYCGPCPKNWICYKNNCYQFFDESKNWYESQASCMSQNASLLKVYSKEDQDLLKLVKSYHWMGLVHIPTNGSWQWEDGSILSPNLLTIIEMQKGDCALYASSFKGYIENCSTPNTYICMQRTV
Description: (§3) Binding to NKG2D was assessed by SPR using a mouse Fc capture kit (Cytiva, #BR100838) immobilized onto a CM5 chip. Human and cynomolgus NKG2D fused to a mouse Fc were captured and AB0411, AB0466, or AB0621 was titrated from 600 nM.

[6] = target: T5, Cyno NKG2D-mFc (cynomolgus monkey, UniProt P61252 78-216, limits assumed); assay: SPR, NKG2D-mFc captured, 37C, pH 7.4
T5 construct: also called cynomolgus NKG2D fused to a mouse Fc
T5 sequence (looked up): T4 sequence (looked up) with D38N, T128I
Description: as §3

binding result [1]: no binding
binding result [2]: no binding
EC50 (nM), NK lysis of HPAF-II (DELFIA) [3]: 0.72 nM
EC50 (nM), NK lysis of LS-174T (DELFIA) [3]: 1.87 nM
EC50 (nM), NK lysis of SK-CO-1 (DELFIA) [3]: 1.02 nM
EC50 (nM), NK lysis of ZR-75-30 (DELFIA) [3]: 1.58 nM
EC50 [4]: 20.6 nM
Max FOB [4]: 51.3 fold over background
Kd [5]: 570 nM
koff [5]: 0.14 s⁻¹
kon [5]: 320000 M⁻¹ s⁻¹
Kd [6]: 520 nM
koff [6]: 0.12 s⁻¹
kon [6]: 320000 M⁻¹ s⁻¹
B1: AB0621 F3' CEACAM5 TriNKET (bispecific antibody, human IgG1, kappa)
chain: DIVMTQSPDSLAVSLGERATINCKSSHSLLYGNFQNNYLAWYQQKPGQPPKLLIYWASTRESGVPDRFSGSGSGTDFTLTISSLQAEDVAVYYCQQYYSYPYTFGCGTKLEIKGGGGSGGGGSGGGGSGGGGSQVQLVQSGAEVKKPGASVKVSCKASGYTFTAYTIHWVRQAPGQCLEWMGYINPSSGYTEYNQKFKDRTTLTADTSISTAYMELSRLRSDDTAVYYCTREGGLLWFDYWGQGTLVTVSSGSDKTHTCPPCPAPELLGGPSVFLFPPKPKDTLMISRTPEVTCVVVDVSHEDPEVKFNWYVDGVEVHNAKTKPREEQYNSTYRVVSVLTVLHQDWLNGKEYKCKVSNKALPAPIEKTISKAKGQPREPRVYTLPPCRDELTKNQVSLTCLVKGFYPSDIAVEWESNGQPENNYKTTPPVLVSDGSFTLYSKLTVDKSRWQQGNVFSCSVMHEALHNHYTQKSLSLSPG
heavy: EVQLVESGGGLVKPGGSLRLSCAASGFTFSSYSMNWVRQAPGKGLEWVSSISSSSSYIYYADSVKGRFTISRDNAKNSLYLQMNSLRAEDTAVYYCARGAPIGAAAGWFDPWGQGTLVTVSSASTKGPSVFPLAPSSKSTSGGTAALGCLVKDYFPEPVTVSWNSGALTSGVHTFPAVLQSSGLYSLSSVVTVPSSSLGTQTYICNVNHKPSNTKVDKKVEPKSCDKTHTCPPCPAPELLGGPSVFLFPPKPKDTLMISRTPEVTCVVVDVSHEDPEVKFNWYVDGVEVHNAKTKPREEQYNSTYRVVSVLTVLHQDWLNGKEYKCKVSNKALPAPIEKTISKAKGQPREPQVCTLPPSRDELTENQVSLTCLVKGFYPSDIAVEWESNGQPENNYKTTPPVLDSDGSFFLYSWLTVDKSRWQQGNVFSCSVMHEALHNHYTQKSLSLSPG
light: DIQMTQSPSSVSASVGDRVTITCRASQGISSWLAWYQQKPGKAPKLLIYAASSLQSGVPSRFSGSGSGTDFTLTISSLQPEDFATYYCQQGVSFPRTFGGGTKVEIKRTVAAPSVFIFPPSDEQLKSGTASVVCLLNNFYPREAKVQWKVDNALQSGNSQESVTEQDSKDSTYSLSSTLTLSKADYEKHKVYACEVTHQGLSSPVTKSFNRGEC
Max Killing (%), HPAF-II [3]: 29.8%
Max Killing (%), LS-174T [3]: 42.6%
Max Killing (%), SK-CO-1 [3]: 80.9%
Max Killing (%), ZR-75-30 [3]: 29.8%

binding result [1]: no binding
binding result [2]: no binding
EC50 (nM), NK lysis of LS-174T (DELFIA) [3]: 0.32 nM
EC50 (nM), NK lysis of SK-CO-1 (DELFIA) [3]: 4.55 nM
EC50 (nM), NK lysis of ZR-75-30 (DELFIA) [3]: 0.17 nM
EC50 [4]: 16.2 nM
Max FOB [4]: 120 fold over background
Kd [5]: 490 nM
koff [5]: 0.12 s⁻¹
kon [5]: 250000 M⁻¹ s⁻¹
Kd [6]: 590 nM
koff [6]: 0.15 s⁻¹
kon [6]: 260000 M⁻¹ s⁻¹
B2: AB0411 F3' CEACAM5 TriNKET (bispecific antibody, human IgG1, kappa)
chain: DIQLTQSPATLSVSPGERATLSCRASQSVSSSYLAWYQQKPGQAPRLLIYGASSRATGIPDRFSGSGSGTDFTLTISRLEPEDFAVYYCQQYNNWPLTFGCGTKVEIKGGGGSGGGGSGGGGSGGGGSQVQLVQSGGGLVQPGGSLRLSCAASGFTFTSYAMSWVRQAPGKCLEWVSAISGTGDSTFYADSVKGRFTFSRDNSKNTLYLQMNSLRAEDTAVYYCAKDLGWLQYGLFDYWGQGTLVTVSSGSDKTHTCPPCPAPELLGGPSVFLFPPKPKDTLMISRTPEVTCVVVDVSHEDPEVKFNWYVDGVEVHNAKTKPREEQYNSTYRVVSVLTVLHQDWLNGKEYKCKVSNKALPAPIEKTISKAKGQPREPRVYTLPPCRDELTKNQVSLTCLVKGFYPSDIAVEWESNGQPENNYKTTPPVLVSDGSFTLYSKLTVDKSRWQQGNVFSCSVMHEALHNHYTQKSLSLSPG
heavy: B1 heavy
light: B1 light
Max Killing (%), HPAF-II [3]: 28.3%
Max Killing (%), LS-174T [3]: 28.9%
Max Killing (%), SK-CO-1 [3]: 84%
Max Killing (%), ZR-75-30 [3]: 25.9%
